Several values for one entry are separate records, joined by “and”; a condition that tells them apart may be missing. Equal entries are not always repeated.
T1: L-TGF-β3/GARP (purified complex of latent TGF-β3 with the GARP ectodomain) (human, UniProt Q14392 20-627)
T1 chain 1: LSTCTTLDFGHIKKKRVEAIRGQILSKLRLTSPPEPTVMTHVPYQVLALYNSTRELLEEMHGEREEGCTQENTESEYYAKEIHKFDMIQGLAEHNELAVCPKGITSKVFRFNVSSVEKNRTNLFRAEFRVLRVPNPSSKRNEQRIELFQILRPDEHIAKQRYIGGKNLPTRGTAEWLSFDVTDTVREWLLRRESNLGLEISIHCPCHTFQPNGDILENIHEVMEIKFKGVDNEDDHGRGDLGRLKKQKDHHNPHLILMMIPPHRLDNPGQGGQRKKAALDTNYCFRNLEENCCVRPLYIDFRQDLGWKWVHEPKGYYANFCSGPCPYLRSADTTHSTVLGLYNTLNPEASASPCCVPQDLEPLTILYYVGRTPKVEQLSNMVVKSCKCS
T1 chain 2: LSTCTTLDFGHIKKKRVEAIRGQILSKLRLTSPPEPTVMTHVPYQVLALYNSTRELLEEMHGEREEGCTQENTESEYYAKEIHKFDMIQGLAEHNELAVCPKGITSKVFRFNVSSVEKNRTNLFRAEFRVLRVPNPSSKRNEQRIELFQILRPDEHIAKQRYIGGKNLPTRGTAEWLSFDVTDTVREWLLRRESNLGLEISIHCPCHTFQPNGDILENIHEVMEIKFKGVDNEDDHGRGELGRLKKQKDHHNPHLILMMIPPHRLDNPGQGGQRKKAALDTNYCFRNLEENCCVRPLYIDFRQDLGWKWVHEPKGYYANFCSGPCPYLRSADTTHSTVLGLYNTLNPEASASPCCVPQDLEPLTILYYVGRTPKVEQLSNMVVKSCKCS
T1 chain 3: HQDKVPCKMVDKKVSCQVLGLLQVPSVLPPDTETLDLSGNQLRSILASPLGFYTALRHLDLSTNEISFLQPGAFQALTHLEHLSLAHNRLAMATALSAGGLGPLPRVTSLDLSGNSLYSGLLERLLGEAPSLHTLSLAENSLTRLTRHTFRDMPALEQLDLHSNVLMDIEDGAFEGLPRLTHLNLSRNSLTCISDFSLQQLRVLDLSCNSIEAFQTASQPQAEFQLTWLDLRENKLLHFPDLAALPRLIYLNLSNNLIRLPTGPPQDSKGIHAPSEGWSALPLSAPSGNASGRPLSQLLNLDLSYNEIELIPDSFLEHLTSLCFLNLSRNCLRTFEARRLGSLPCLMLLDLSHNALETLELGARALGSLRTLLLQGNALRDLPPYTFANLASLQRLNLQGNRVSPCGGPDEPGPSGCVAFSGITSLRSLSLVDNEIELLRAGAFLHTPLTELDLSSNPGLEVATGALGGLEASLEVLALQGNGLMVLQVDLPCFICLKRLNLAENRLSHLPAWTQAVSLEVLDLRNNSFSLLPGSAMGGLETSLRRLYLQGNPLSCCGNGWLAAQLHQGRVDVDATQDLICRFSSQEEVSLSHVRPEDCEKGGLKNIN


Columns and labels:
[1] = target: L-TGF-β1 (latent TGF-β1 dimer, R249A, as it stands in L-TGF-β1/GARP) (human); experiment: cryo-EM structure; purified L-TGF-β1/GARP or L-TGF-β3/GARP alone, 0.3 mg/ml
[2] = target: T1, L-TGF-β3/GARP (purified complex of …); experiment: mass photometry; L-TGF-β3/GARP with αvβ8; TBS with 1 mM CaCl2, 1 mM MgCl2; details: both partners purified
[3] = target: L-TGF-β1/GARP (secreted complex of latent TGF-β1 with the GARP ectodomain) (human) (UniProt Q14392); experiment: mass photometry + cryo-EM structure; L-TGF-β1/GARP mixed with recombinant αvβ8 ectodomain at 1:1 molar ratio; mass photometry in TBS with 1 mM CaCl2, 1 mM MgCl2

Molecule	stoichiometry N [1]	stoichiometry N [2]	stoichiometry N [3]
L-TGF-β1 (latent TGF-β1 dimer, R249A, as it stands in L-TGF-β1/GARP) (natural protein)	2		
secreted ectodomain of αvβ8 integrin (receptor, integrin αv, truncated (αvtr pcDM8), secreted ectodomain; integrin β8, truncated (β8tr), secreted ectodomain; also called αvβ8tr; truncated αvβ8 ectodomain; source: ExpiCHO, transfected, purified from supernatant (Protein G crosslinked with antibody 8B8, SEC on Superose 6)) chain 1: FNLDVDSPAEYSGPEGSYFGFAVDFFVPSASSRMFLLVGAPKANTTQPGIVEGGQVLKCDWSSTRRCQPIEFDATGNRDYAKDDPLEFKSHQWFGASVRSKQDKILACAPLYHWRTEMKQEREPVGTCFLQDGTKTVEYAPCRSQDIDADGQGFCQGGFSIDFTKADRVLLGGPGSFYWQGQLISDQVAEIVSKYDPNVYSIKYNNQLATRTAQAIFDDSYLGYSVAVGDFNGDGIDDFVSGVPRAARTLGMVYIYDGKNMSSLYNFTGEQMAAYFGFSVAATDINGDDYADVFIGAPLFMDRGSDGKLQEVGQVSVSLQRASGDFQTTKLNGFEVFARFGSAIAPLGDLDQDGFNDIAIAAPYGGEDKKGIVYIFNGRSTGLNAVPSQILEGQWAARSMPPSFGYSMKGATDIDKNGYPDLIVGAFGVDRAILYRARPVITVNAGLEVYPSILNQDNKTCSLPGTALKVSCFNVRFCLKADGKGVLPRKLNFQVELLLDKLKQKGAIRRALFLYSRSPSHSKNMTISRGGLMQCEELIAYLRDESEFRDKLTPITIFMEYRLDYRTAADTTGLQPILNQFTPANISRQAHILLDCGEDNVCKPKLEVSVDSDQKKIYIGDDNPLTLIVKAQNQGEGAYEAELIVSIPLQADFIGVVRNNEALARLSCAFKTENQTRQVVCDLGNPMKAGTQLLAGLRFSVHQQSEMDTSVKFDLQIQSSNLFDKVSPVVSHKVDLAVLAAVEIRGVSSPDHVFLPIPNWEHKENPETEEDVGPVVQHIYELRNNGPSSFSKAMLHLQWPYKYNNNTLLYILHYDIDGPMNCTSDMEINPLRIKISSLQTTEKNDTVAGQGERDHLITKRDLALSEGDIHTLGCGVAQCLKIVCQVGRLDRGKSAILYVKSLLWTETFMNKENQNHSYSLKSSASFNVIEFPYKNLPIEDITNSTLVTTNVTWGIQPAPMPV chain 2: EDNRCASSNAASCARCLALGPECGWCVQEDFISGGSRSERCDIVSNLISKGCSVDSIEYPSVHVIIPTENEINTQVTPGEVSIQLRPGAEANFMLKVHPLKKYPVDLYYLVDVSASMHNNIEKLNSVGNDLSRKMAFFSRDFRLGFGSYVDKTVSPYISIHPERIHNQCSDYNLDCMPPHGYIHVLSLTENITEFEKAVHRQKISGNIDTPEGGFDAMLQAAVCESHIGWRKEAKRLLLVMTDQTSHLALDSKLAGIVVPNDGNCHLKNNVYVKSTTMEHPSLGQLSEKLIDNNINVIFAVQGKQFHWYKDLLPLLPGTIAGEIESKAANLNNLVVEAYQKLISEVKVQVENQVQGIYFNITAICPDGSRKPGMEGCRNVTSNDEVLFNVTVTMKKCDVTGGKNYAIIKPIGFNETAKIHIHRNCSCQCEDNRGPKGKCVDETFLDSKCFQCDENKCHFDEDQFSSESCKSHKDQPVCSGRGVCVCGKCSCHKIKLGKVYGKYCEKDDFSCPYHHGNLCAGHGECEAGRCQCFSGWEGDRCQCPSAAAQHCVNSKGQVCSGRGTCVCGRCECTDPRSIGRFCEHCPTCYTACKENWNCMQCLHPHNLSQAILDQCKTSCALMEQQHYVDQTSECFSSPSYLR		1 and 2	1 and 2
